From patent publication US20120164123 come the findings set out here.

Data set [1] has as its system human neutrophil peptide-1 (HNP-1).
In data set [2] the test system is mono-ADP-ribosylated HNP-1.
mono-ADP-ribosylated HNP-1, sequence (chain, as listed by the source): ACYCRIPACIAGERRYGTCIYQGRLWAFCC

human neutrophil peptide-1 (HNP-1), sequence (chain, as listed by the source): as above

Turning to manganese-activated arginase, the “ornithine formation by arginase (amino acid analysis and MS)” value in data set [1] was “Identification of the products by amino acid analysis and MS identified ornithine only in the reaction that contained free arginine”; in data set [2], “Identification of the products by amino acid analysis and MS identified ornithine only in the reaction that contained free arginine”.
